Laboratory results from article PMC11603163.

Target: CLSY3-3xF-BLRP (Arabidopsis) (UniProt F4I8S3)
Assay: co-IP; streptavidin beads (M-280 Dynabeads) capture CLSY3-3xF-BLRP from flower extracts of F1 plants crossed to NRPD1-3xF WT or CYC-AAAA; anti-FLAG western blot; dilution series of the WT co-IP

Chain of UniProt F4I8S3 (F4I8S3 whole entry): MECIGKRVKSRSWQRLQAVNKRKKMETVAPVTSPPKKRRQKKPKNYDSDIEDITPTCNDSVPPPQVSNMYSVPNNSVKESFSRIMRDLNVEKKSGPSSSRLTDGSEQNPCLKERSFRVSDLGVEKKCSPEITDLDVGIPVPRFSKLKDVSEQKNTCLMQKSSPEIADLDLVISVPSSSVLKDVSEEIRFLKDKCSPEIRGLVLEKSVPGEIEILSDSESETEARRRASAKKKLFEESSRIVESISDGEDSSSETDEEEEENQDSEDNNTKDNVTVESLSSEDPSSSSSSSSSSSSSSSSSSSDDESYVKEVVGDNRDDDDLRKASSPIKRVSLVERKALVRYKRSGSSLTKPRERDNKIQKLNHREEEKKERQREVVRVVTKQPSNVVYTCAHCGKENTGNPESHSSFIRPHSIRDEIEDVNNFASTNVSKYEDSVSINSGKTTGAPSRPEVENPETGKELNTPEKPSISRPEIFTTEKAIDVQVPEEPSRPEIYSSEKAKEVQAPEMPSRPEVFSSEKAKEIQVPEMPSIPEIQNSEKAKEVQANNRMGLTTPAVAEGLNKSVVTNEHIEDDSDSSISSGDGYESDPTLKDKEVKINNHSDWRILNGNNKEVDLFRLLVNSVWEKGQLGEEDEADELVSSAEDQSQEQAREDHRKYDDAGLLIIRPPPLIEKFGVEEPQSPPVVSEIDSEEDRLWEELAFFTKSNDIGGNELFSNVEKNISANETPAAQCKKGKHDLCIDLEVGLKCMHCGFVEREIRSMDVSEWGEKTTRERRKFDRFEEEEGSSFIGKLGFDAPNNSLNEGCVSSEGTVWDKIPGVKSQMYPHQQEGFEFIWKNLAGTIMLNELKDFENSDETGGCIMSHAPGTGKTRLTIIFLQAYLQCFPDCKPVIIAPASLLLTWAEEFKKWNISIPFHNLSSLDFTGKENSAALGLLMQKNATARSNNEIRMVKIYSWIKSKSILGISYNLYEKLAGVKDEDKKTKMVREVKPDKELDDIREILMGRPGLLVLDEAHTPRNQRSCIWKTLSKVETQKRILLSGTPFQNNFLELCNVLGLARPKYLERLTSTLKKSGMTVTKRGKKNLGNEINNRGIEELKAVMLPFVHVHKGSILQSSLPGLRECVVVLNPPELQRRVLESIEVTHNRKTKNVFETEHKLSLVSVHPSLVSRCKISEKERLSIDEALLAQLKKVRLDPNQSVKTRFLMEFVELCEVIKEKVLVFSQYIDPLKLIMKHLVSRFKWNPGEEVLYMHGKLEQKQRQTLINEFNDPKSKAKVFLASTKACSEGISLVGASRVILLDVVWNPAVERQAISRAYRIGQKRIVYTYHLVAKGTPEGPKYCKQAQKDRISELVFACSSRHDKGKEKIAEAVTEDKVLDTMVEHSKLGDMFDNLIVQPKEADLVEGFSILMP

“NRPD1-3xF_(CYC-AAAA) (from UniProt Q9LQ02 1-1453) (natural protein)” gave a fold reduction of the co-IP against NRPD1-3xFWT of over 8 fold.
